Measured values published in publication PMC2572732, “Structural Coupling of SH2-Kinase Domains Links Fes and Abl Substrate Recognition and Kinase Activation” (Cell, 2008).
No end group written: not given here.

How the values were obtained:
[1] = target: T1, human Fes SH2-kinase unit (residues I448 to the C terminus), unphosphorylated (human, UniProt P07332-1 448-822); assay: crystal structure; sitting drops; Fes SH2-kinase with staurosporine (1 mM) and peptide Ac-IYESL (250-300 uM); form II from 20% PEG 3350, 0.1 M sodium malate; form III from 30% mPEG 2000, 0.15 M NaBr; settings: both partners purified
T1 construct: Fes tyrosine kinase, human, NP_001996; linker N terminal to the SH2 domain, SH2 domain and C-terminal kinase domain; residues I448 to the C terminus; Crystallised with staurosporine; also called SH2-kinase polypeptide; unphosphorylated Fes; source: E. coli BL21(DE3)-R3, coexpressed with YopH tyrosine phosphatase, purified

[2] = target: T2, human Fes SH2-kinase unit (residues I448 to the C terminus), autophosphorylated on Y713 (human, UniProt P07332-1 448-822, phosphotyrosine at 713); assay: as above; settings: both partners purified
T2 construct: Fes tyrosine kinase, human, NP_001996; Crystallised with staurosporine; also called pY713-Fes; phosphorylated Fes; source: E. coli BL21(DE3)-R3, coexpressed with YopH, purified; autophosphorylated in vitro, purified by gel filtration
T2 sequence (P07332 448-822): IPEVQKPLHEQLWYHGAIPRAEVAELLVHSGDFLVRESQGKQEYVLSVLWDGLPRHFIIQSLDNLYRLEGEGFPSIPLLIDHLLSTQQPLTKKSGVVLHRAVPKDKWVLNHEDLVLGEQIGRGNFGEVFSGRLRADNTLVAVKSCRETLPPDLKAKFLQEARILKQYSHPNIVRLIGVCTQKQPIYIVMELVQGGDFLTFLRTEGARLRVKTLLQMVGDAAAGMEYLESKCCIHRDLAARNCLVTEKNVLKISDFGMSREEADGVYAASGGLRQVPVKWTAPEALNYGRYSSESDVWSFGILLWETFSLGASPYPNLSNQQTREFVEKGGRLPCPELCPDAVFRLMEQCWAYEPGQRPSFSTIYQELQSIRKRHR

T1 sequence (P07332 448-822): as above

binding result [1]: binds
binding result [2]: binds
B1: Fes kinase consensus substrate peptide Ac-IYESL (peptide)
peptide: Ac-IYESL
notes: consensus substrate peptide of the Fes kinase, derived from peptide library and array screens; also called consensus peptide; source: synthetic peptide
